Reference: the Human Domainome abundance scans (Beltran et al. 2025)
± gives the uncertainty stated by the source.

B1: Nuclear receptor subfamily 1 group D member 2, residues 103 to 171; numbered along this chain, Q14995 (parent)
chain: CKVCGDVASGFHYGVHACEGCKGFFRRSIQQNIQYKKCLKNENCSIMRMNRNRCQQCRFKKCLSVGMSR

Variants of: B1
Test: abundance fitness (aPCA) (normalised: wild type 0, dead -1); higher = more abundant; growth selection in yeast, the domain comes from the species named
Conditions: Homo sapiens

Question: With CKVCGDVASGFHYGVHACEGCKGFFRRSIQQNIQYKNCLKNENCSIMRMNRNRCQQCRFKKCLSVGMSR [K37N] as the variant, how does the abundance fitness read?
Answer: The abundance fitness was 0.375 ± 0.11.

Question: With CKVCGDVASGFHYGVHACEGCKGFFRRSIQQNIQYKTCLKNENCSIMRMNRNRCQQCRFKKCLSVGMSR [K37T] as the variant, how does the abundance fitness read?
Answer: The abundance fitness was -0.234 ± 0.12.

Question: For CKVCGDVASGFHYGVHACEGCKGFFRRSIQQNIQYKQCLKNENCSIMRMNRNRCQQCRFKKCLSVGMSR [K37Q], which abundance fitness is on record?
Answer: Its abundance fitness is -0.075 ± 0.12.

Question: With CKVCGDVASGFHYGVHACEGCKGFFRRSIQQNIQYKICLKNENCSIMRMNRNRCQQCRFKKCLSVGMSR [K37I] as the variant, how does the abundance fitness read?
Answer: The abundance fitness was -0.279 ± 0.14.

Question: For CKVCGDVASGFHYGVHACEGCKGFFRRSIQQNIQYKCCLKNENCSIMRMNRNRCQQCRFKKCLSVGMSR [K37C], which abundance fitness is on record?
Answer: Its abundance fitness is -0.495 ± 0.18.

Question: With CKVCGDVASGFHYGVHACEGCKGFFRRSIQQNIQYKHCLKNENCSIMRMNRNRCQQCRFKKCLSVGMSR [K37H] as the variant, how does the abundance fitness read?
Answer: Its abundance fitness is -0.241 ± 0.18.

Question: For CKVCGDVASGFHYGVHACEGCKGFFRRSIQQNIQYKMCLKNENCSIMRMNRNRCQQCRFKKCLSVGMSR [K37M], which abundance fitness is on record?
Answer: Its abundance fitness is 0.279 ± 0.17.

Question: For CKVCGDVASGFHYGVHACEGCKGFFRRSIQQNIQYKSCLKNENCSIMRMNRNRCQQCRFKKCLSVGMSR [K37S], which abundance fitness is on record?
Answer: The abundance fitness was 0.011 ± 0.07.

Question: With CKVCGDVASGFHYGVHACEGCKGFFRRSIQQNIQYKECLKNENCSIMRMNRNRCQQCRFKKCLSVGMSR [K37E] as the variant, how does the abundance fitness read?
Answer: Its abundance fitness is -0.04 ± 0.1.

Question: With CKVCGDVASGFHYGVHACEGCKGFFRRSIQQNIQYKLCLKNENCSIMRMNRNRCQQCRFKKCLSVGMSR [K37L] as the variant, how does the abundance fitness read?
Answer: Its abundance fitness is -0.473 ± 0.11.

Question: With CKVCGDVASGFHYGVHACEGCKGFFRRSIQQNIQYKVCLKNENCSIMRMNRNRCQQCRFKKCLSVGMSR [K37V] as the variant, how does the abundance fitness read?
Answer: Its abundance fitness is -0.387 ± 0.099.

Question: For CKVCGDVASGFHYGVHACEGCKGFFRRSIQQNIQYKDCLKNENCSIMRMNRNRCQQCRFKKCLSVGMSR [K37D], which abundance fitness is on record?
Answer: Its abundance fitness is 0.255 ± 0.044.

Question: For CKVCGDVASGFHYGVHACEGCKGFFRRSIQQNIQYKACLKNENCSIMRMNRNRCQQCRFKKCLSVGMSR [K37A], which abundance fitness is on record?
Answer: Its abundance fitness is 0.064 ± 0.081.

Question: For CKVCGDVASGFHYGVHACEGCKGFFRRSIQQNIQYKPCLKNENCSIMRMNRNRCQQCRFKKCLSVGMSR [K37P], which abundance fitness is on record?
Answer: The abundance fitness was 0.27 ± 0.081.

Question: For CKVCGDVASGFHYGVHACEGCKGFFRRSIQQNIQYKRCLKNENCSIMRMNRNRCQQCRFKKCLSVGMSR [K37R], which abundance fitness is on record?
Answer: The abundance fitness was -0.391 ± 0.1.

Question: For CKVCGDVASGFHYGVHACEGCKGFFRRSIQQNIQYAKCLKNENCSIMRMNRNRCQQCRFKKCLSVGMSR [K36A], which abundance fitness is on record?
Answer: Its abundance fitness is -0.172 ± 0.12.

Question: For CKVCGDVASGFHYGVHACEGCKGFFRRSIQQNIQYGKCLKNENCSIMRMNRNRCQQCRFKKCLSVGMSR [K36G], which abundance fitness is on record?
Answer: The abundance fitness was 0.092 ± 0.11.

Question: For CKVCGDVASGFHYGVHACEGCKGFFRRSIQQNIQYSKCLKNENCSIMRMNRNRCQQCRFKKCLSVGMSR [K36S], which abundance fitness is on record?
Answer: The abundance fitness was 0.137 ± 0.18.

Question: For CKVCGDVASGFHYGVHACEGCKGFFRRSIQQNIQYMKCLKNENCSIMRMNRNRCQQCRFKKCLSVGMSR [K36M], which abundance fitness is on record?
Answer: Its abundance fitness is -0.267 ± 0.24.

Question: For CKVCGDVASGFHYGVHACEGCKGFFRRSIQQNIQYLKCLKNENCSIMRMNRNRCQQCRFKKCLSVGMSR [K36L], which abundance fitness is on record?
Answer: The abundance fitness was -0.459 ± 0.17.

Question: For CKVCGDVASGFHYGVHACEGCKGFFRRSIQQNIQYPKCLKNENCSIMRMNRNRCQQCRFKKCLSVGMSR [K36P], which abundance fitness is on record?
Answer: Its abundance fitness is -0.199 ± 0.16.

Question: With CKVCGDVASGFHYGVHACEGCKGFFRRSIQQNIQYIKCLKNENCSIMRMNRNRCQQCRFKKCLSVGMSR [K36I] as the variant, how does the abundance fitness read?
Answer: Its abundance fitness is -0.509 ± 0.48.

Question: Which abundance fitness does the source give for CKVCGDVASGFHYGVHACEGCKGFFRRSIQQNIQYWKCLKNENCSIMRMNRNRCQQCRFKKCLSVGMSR [K36W] here?
Answer: Its abundance fitness is -0.33 ± 0.2.

Question: For CKVCGDVASGFHYGVHACEGCKGFFRRSIQQNIQYEKCLKNENCSIMRMNRNRCQQCRFKKCLSVGMSR [K36E], which abundance fitness is on record?
Answer: The abundance fitness was 0.219 ± 0.35.

Question: With CKVCGDVASGFHYGVHACEGCKGFFRRSIQQNIQYVKCLKNENCSIMRMNRNRCQQCRFKKCLSVGMSR [K36V] as the variant, how does the abundance fitness read?
Answer: The abundance fitness was -0.26 ± 0.12.

Question: With CKVCGDVASGFHYGVHACEGCKGFFRRSIQQNIQYTKCLKNENCSIMRMNRNRCQQCRFKKCLSVGMSR [K36T] as the variant, how does the abundance fitness read?
Answer: The abundance fitness was -0.292 ± 0.2.

Question: For CKVCGDVASGFHYGVHACEGCKGFFRRSIQQNIQYDKCLKNENCSIMRMNRNRCQQCRFKKCLSVGMSR [K36D], which abundance fitness is on record?
Answer: The abundance fitness was -0.439 ± 0.31.

Question: For CKVCGDVASGFHYGVHACEGCKGFFRRSIQQNIQYQKCLKNENCSIMRMNRNRCQQCRFKKCLSVGMSR [K36Q], which abundance fitness is on record?
Answer: Its abundance fitness is -0.305 ± 0.27.

Question: For CKVCGDVASGFHYGVHACEGCKGFFRRSIQQLIQYKKCLKNENCSIMRMNRNRCQQCRFKKCLSVGMSR [N32L], which abundance fitness is on record?
Answer: The abundance fitness was -0.706 ± 0.099.

Question: Which abundance fitness does the source give for CKVCGDVASGFHYGVHACEGCKGFFRRSIQQVIQYKKCLKNENCSIMRMNRNRCQQCRFKKCLSVGMSR [N32V] here?
Answer: Its abundance fitness is -0.672 ± 0.084.

Question: Which abundance fitness does the source give for CKVCGDVASGFHYGVHACEGCKGFFRRSIQQTIQYKKCLKNENCSIMRMNRNRCQQCRFKKCLSVGMSR [N32T] here?
Answer: Its abundance fitness is -0.414 ± 0.092.

Question: Which abundance fitness does the source give for CKVCGDVASGFHYGVHACEGCKGFFRRSIQQCIQYKKCLKNENCSIMRMNRNRCQQCRFKKCLSVGMSR [N32C] here?
Answer: The abundance fitness was -0.612 ± 0.2.

Question: Which abundance fitness does the source give for CKVCGDVASGFHYGVHACEGCKGFFRRSIQQHIQYKKCLKNENCSIMRMNRNRCQQCRFKKCLSVGMSR [N32H] here?
Answer: The abundance fitness was -0.566 ± 0.14.

Question: For CKVCGDVASGFHYGVHACEGCKGFFRRSIQQAIQYKKCLKNENCSIMRMNRNRCQQCRFKKCLSVGMSR [N32A], which abundance fitness is on record?
Answer: The abundance fitness was -0.343 ± 0.077.

Question: For CKVCGDVASGFHYGVHACEGCKGFFRRSIQQYIQYKKCLKNENCSIMRMNRNRCQQCRFKKCLSVGMSR [N32Y], which abundance fitness is on record?
Answer: Its abundance fitness is -0.776 ± 0.17.

Question: With CKVCGDVASGFHYGVHACEGCKGFFRRSIQQIIQYKKCLKNENCSIMRMNRNRCQQCRFKKCLSVGMSR [N32I] as the variant, how does the abundance fitness read?
Answer: Its abundance fitness is -0.329 ± 0.12.

Question: Which abundance fitness does the source give for CKVCGDVASGFHYGVHACEGCKGFFRRSIQQMIQYKKCLKNENCSIMRMNRNRCQQCRFKKCLSVGMSR [N32M] here?
Answer: The abundance fitness was -0.44 ± 0.14.

Question: With CKVCGDVASGFHYGVHACEGCKGFFRRSIQQEIQYKKCLKNENCSIMRMNRNRCQQCRFKKCLSVGMSR [N32E] as the variant, how does the abundance fitness read?
Answer: The abundance fitness was 0.176 ± 0.083.

Question: With CKVCGDVASGFHYGVHACEGCKGFFRRSIQQQIQYKKCLKNENCSIMRMNRNRCQQCRFKKCLSVGMSR [N32Q] as the variant, how does the abundance fitness read?
Answer: Its abundance fitness is 0.144 ± 0.12.
